Test results reported in patent US20220009987A9, “HUMAN RESISTIN COMPOSITIONS AND METHODS OF TREATING TLR4-MEDIATED DISEASE AND INFECTION” (THE REGENTS OF THE UNIVERSITY OF CALIFORNIA, priority 2017, published 2022).
“Also recorded” adds a separate entry of the source.

Tests used:
human CAP1 = human CAP1 (Homo sapiens, UniProt Q01518); test: Pull-down assay with His-tagged human CAP1; assay type: binding; conditions: nickel-NTA agarose beads, anti-hRetn blot
Experimental: (§1) Pull-down Assay. 1 μg/ml protein His-tagged MBP, human TLR4 and human CAP1 were added to nickel-nitrilotriacetic acid-agarose beads (Invitrogen) in binding buffer (50 mM NaH2PO4, 500 mM NaCl, 10 mM Imidazole, pH 8.0) and mixed for 1 hour at 4° C., followed by washing and 1 h incubation at 4° C. with hRetn (E. coli-derived, Peprotech or 293T cell-derived, LifeSpan Biosciences) in binding buffer. Beads were washed in wash buffer (50 mM NaH2PO4, 500 mM NaCl, 20 mM Imidazole, pH 8.0), and complex protein eluted with elution buffer (50 mM NaH2PO4, 500 mM NaCl, 250 mM Imidazole, pH 6.0). His-MBP, His-TLR4 and His-CAP1 were detected by anti-His antibody (Abcam), and hRetn was detected by anti-hRetn antibody (donated by Mitchell Lazar) by Western Blot. For the N-peptide binding experiment, 1 μg/ml His-tagged human TLR4 with 500 ng/ml N-peptide or 10% TFE control was added to the beads in binding buffer and mixed for 30 min at 4° C., followed by co-immunoprecipitation using 1 μg/ml Flag-hRetn (LifeSpan Biosciences), anti-His or anti-Flag (Sigma).

CD14+CD11b+ monocytes = test: Competitive resistin/LPS binding assay on human PBMCs (flow cytometry); assay type: cell-based; conditions: for LPS binding to CD14+CD11b+ monocytes: pre-incubation before LPS-biotin, on ice
Experimental: (§2) Human PBMCs. Human buffy coat was purchased from Zen-bio. Buffy coat was overlaid on top of Histopaque-1077 and spun at 700g at 25° C. with no brake and PBMCs were recovered from the interphase. PBMCs were plated in 96-well plates and stimulated with mammalian-derived human resistin (1 μg/mL, LifeSpan Biosciences) or hRetn N-peptide (1 μg/mL). After 24 hours, ultrapure LPS (100 ng/mL, Invivogen) was added and supernatants recovered for ELISA at 24 hours. Where indicated, cells were incubated for 4 hours with STAT3 (5, 15-DPP, 50 μM) or TBK1 (BX-795, 1 μM) inhibitors prior to hRetn treatment. For the hRetn competitive binding assay, 1×10^6 cells were incubated with recombinant hRetn (0.5 μg), washed in PBS then incubated with 0.5 μg LPS-biotin (incubations were 30 minutes on ice). Cells were washed in FACS buffer, treated with Fc block, and stained with BV605-conjugated streptavidin and α-human primary antibodies: CD14 (clone M5E2), CD11 b (clone M1/70) and MD2/TLR4 (clone HTA125) purchased from Affymetrix.

human TLR4 = human TLR4 (Homo sapiens, UniProt O00206); test: Pull-down assay with His-tagged human TLR4; assay type: binding; conditions: nickel-NTA agarose beads, anti-hRetn blot
Chain of human TLR4 (O00206 24-839): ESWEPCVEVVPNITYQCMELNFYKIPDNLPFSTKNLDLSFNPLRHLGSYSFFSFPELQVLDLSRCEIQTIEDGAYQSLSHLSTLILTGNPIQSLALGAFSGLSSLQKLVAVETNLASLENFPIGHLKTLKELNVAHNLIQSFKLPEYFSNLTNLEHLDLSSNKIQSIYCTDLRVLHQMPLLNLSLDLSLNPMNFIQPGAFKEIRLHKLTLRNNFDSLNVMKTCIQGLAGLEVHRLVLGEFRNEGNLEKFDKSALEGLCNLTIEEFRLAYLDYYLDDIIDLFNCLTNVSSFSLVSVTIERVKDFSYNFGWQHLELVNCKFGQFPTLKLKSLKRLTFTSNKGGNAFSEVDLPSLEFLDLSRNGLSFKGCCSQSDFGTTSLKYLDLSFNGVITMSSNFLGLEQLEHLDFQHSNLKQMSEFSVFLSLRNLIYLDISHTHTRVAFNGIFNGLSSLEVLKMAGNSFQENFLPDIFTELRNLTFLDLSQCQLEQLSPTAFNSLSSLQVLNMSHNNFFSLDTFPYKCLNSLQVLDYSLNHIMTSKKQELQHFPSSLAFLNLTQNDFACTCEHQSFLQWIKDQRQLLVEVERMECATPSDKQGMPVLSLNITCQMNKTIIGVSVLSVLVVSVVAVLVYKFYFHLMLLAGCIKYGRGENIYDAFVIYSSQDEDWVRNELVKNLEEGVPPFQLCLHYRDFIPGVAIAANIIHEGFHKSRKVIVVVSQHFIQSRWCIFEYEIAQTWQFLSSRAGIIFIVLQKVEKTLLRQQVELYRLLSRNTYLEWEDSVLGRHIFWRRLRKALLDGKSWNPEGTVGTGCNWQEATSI
Experimental: as §1

human PBMCs = test: Human PBMC functional assay, LPS-induced cytokine secretion (ELISA); assay type: cell-based
Experimental: as §2
Cytokine Quantification. Sandwich ELISAs were performed using capture and biotinylated antibodies for human resistin (Peprotech), IL-10 and TNFα (BD Biosciences) according to manufacturer's instructions. Detection was performed with streptavidin-peroxidase (Jackson ImmunoResearch) and TMB peroxidase substrate (BD Biosciences), followed by addition of 2N H2SO4. Optical density (OD) was captured at 450 nm. Samples were compared to serial-fold dilution of recombinant protein. For Luminex, inflammatory cytokine kits (Affymetrix) were run according to manufacturer's instructions and quantified on Luminex MagPix (Luminex Corp.). For cytokine bead array, cytokine kits from BD Bioscience were run according to manufacturer's instructions on BD LSRII and analyzed using FCAP Array Software.

[1] = human PBMC, pre-treatment then LPS 100 ng/mL

Chain of human CAP1 (Q01518 whole entry): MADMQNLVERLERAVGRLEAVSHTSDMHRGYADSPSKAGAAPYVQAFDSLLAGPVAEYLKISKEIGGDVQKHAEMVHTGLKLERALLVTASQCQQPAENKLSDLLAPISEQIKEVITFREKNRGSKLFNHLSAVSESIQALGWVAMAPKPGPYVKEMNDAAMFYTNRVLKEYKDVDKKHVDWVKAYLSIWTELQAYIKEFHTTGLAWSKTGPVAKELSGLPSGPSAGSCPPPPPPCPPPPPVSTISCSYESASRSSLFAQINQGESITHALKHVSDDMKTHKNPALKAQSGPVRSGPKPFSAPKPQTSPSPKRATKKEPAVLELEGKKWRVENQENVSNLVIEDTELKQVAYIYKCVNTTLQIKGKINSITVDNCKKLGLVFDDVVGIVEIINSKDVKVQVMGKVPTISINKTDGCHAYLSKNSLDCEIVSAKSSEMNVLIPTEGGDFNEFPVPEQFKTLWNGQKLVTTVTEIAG

B1: hRetn: human resistin protein (hRetn) having an amino acid sequence of SEQ ID NO: 1; recombinant, E. coli-derived or 293T cell-derived (protein, listed as Homo sapiens)
chain: MKALCLLLLPVLGLLVSSKTLCSMEEAINERIQEVAGSLIFRAISSIGLECQSVTSRGDLATCPRGFAVTGCTCGSACGSWDVRAETTCHCQCAGMDWTGARCCRVQP
hRetn in pull-down elution with his-CAP1 (Western blot) (human CAP1): not his-CAP1
cell population binding hRetn in human PBMC (CD14+CD11b+ monocytes; flow cytometry): CD11b+CD14+ monocytes were the dominant population that bound hRetn
LPS-promoted surface MD2/TLR4 complex formation (CD14+CD11b+ monocytes; human PBMC, flow cytometry): abrogated
LPS binding to CD14+CD11b+ monocytes (CD14+CD11b+ monocytes): significantly abrogated
LPS binding to CD14+CD11b+ monocytes (CD14+CD11b+ monocytes; listed as full-length hRetn): inhibited LPS binding
hRetn in pull-down elution with his-TLR4 (Western blot) (human TLR4): only present in the elution with his-TLR4
hRetn in pull-down elution with his-TLR4 (Western blot) (human TLR4; listed as mammalian-derived hRetn): only detected when pulled down with his-TLR4
hRetn functional effect on TNFα and IL-10 when STAT3 signaling was inhibited (human PBMCs; human PBMC, 5,15-DPP 50 μM 4 hours prior to hRetn): also abrogated
hRetn functional effect on TNFα and IL-10 in the presence of TBK1 inhibitor (human PBMCs; human PBMC, BX-795 1 μM 4 hours prior to hRetn): abrogated
IL-10 expression after LPS (human PBMCs; [1]): increased IL-10 expression
LPS-induced TNFα secretion (human PBMCs; [1]): significantly more TNFα than cells treated with hRetn and LPS; also recorded: significantly reduced LPS-induced TNFα secretion
